# Data taken from patent US20190248902A1 (published 2019).
# Numbering of substitutions follows the chain as printed.
# T1: recombinant, soluble human ASGR-1 (human, UniProt P07306 62-291)
# T1 construct: biotinylated in the binning assay; also called soluble huASGR-1; Soluble ASGR-1 (Amgen)
# T1 sequence: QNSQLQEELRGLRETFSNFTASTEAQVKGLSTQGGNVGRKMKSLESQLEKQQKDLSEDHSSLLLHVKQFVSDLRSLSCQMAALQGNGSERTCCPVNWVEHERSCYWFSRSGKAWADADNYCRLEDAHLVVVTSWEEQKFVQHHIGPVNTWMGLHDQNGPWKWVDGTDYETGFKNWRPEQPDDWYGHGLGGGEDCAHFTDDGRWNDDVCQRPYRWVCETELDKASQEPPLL
# B1: 218G4 (antibody, V domains shown)
# VH: QVQLVESGGGVVQPGRSLRLSCAASGFTFSSYGLHWVRQAPGKGLEWVAVIWYDGSNKYYADSVKGRFTISRDNSKNTLYLQMNSLRVEDTAVYYCANWYYYYYGMDVWGQGTTVTVSS
# VL: QSVLTQPPSVSAAPGQKVTISCSGSSSNIGNNYVSWYQQLPGTAPKLLLYDSNKRPSGIPARFSGSKSGTSATLGITGLQTGDEADYYCGTWDSSLNTVVFGGGTKLTVL
# notes: hybridoma mAb
# B2: 75G3 (antibody, V domains shown)
# VH: QVQLQQWGAGLLKPSETLSLTCAVYGGSLSGSYWSWIRQPPGKGLEWIGEINLSGSTNYNPSLKSRVTISVDTSKSQFSLTLRSVTAADTAVYYCARDYGGLDYWGQGTLVTVSS
# VL: EIVLTQSPGTLSLSPGERATLSCRARQNVDSSYLAWYQQKPGQAPRLLIYGASSRATGIPDRFSGSGSGTDFTLTISRLEPEDFAVFYCQQYERSPWTFGQGTKVEIK
# notes: hybridoma mAb
# B3: 74H7 (antibody, V domains shown)
# VH: B2 VH with T17P, L29F, S32P, L53H, S76N, T81K, R83T, Y104V, L110T
# VL: B2 VL with I2L, R26S, V29I, D30Y, F87Y, Y88C, R94S
# notes: hybridoma mAb
# B4: 74B2 (antibody, V domains shown)
# VH: QVQLQQWGAGLLKPSEPLSLTCAVYGGSFSGPYWSWIRQPPGKGLEWIGEINHSGSTNYNPSLTSRVTISVDTSKNQFSLKLTSVTAADSAVYYCARDYGGLDVWGQGTTVTVSS
# VL: B2 VL with I2L, R26S, V29I, D30Y, F87Y, Y88C, R94S
# notes: hybridoma mAb
# B5: 85F7 (antibody, V domains shown)
# VH: B4 VH with T64K, S90T
# VL: B2 VL with I2P, R26S, V29I, D30Y, S32N, F87Y, Y88C, R94S
# notes: hybridoma mAb
# B6: 196C7 (antibody, V domains shown)
# VH: QVQLVESGGGVVQPGRSLRLSCAASGFTFSSYGMHWVRQAPGKGLEWVAVIWYDGSNEHYADSVKGRFTISRDNSKNTLYLQMNSLRAEDTAVYYCARDRGVGYYGLDVWGQGTTVTVSS
# VL: DIQMTQSPSSLSASVGDRVTITCRANQAISNYLAWFQQKPGKAPKSLIYAASSLQSGVPSKFSGSGSGTDFTLTISSLQPEDFATYYCQHYLTYPLTFGGGTKVEIK
# notes: hybridoma mAb
# B7: 213B3 (antibody, V domains shown)
# VH: B6 VH with E58K, H59N, G101T, Y105D, L107F, V109I, T115M
# VL: DIQMTQSPSSLSASVGDRVTITCRASQGIGKYLAWFQQKPGKAPKSLISAASSVLSGVPSKFSGSGSGTDFTLTISSLQPEDFATYYCQKYDTYPFTFGPGTKVDIK
# notes: hybridoma mAb
# B8: 192E4 (antibody, V domains shown)
# VH: B6 VH with E58K, H59N, A61V, K65R, G101S, Y105D, L107M
# VL: B7 VL with K31N, S49Y, A50V, A51V, V54L, L55Q, K61R, K90R
# notes: hybridoma mAb
# B9: 190F12 (antibody, V domains shown)
# VH: B6 VH with S30R, S31N, Y53F, E58D, H59Y, Y80S, G101S, Y105D
# VL: B7 VL with S49Y, V54L, L55Q, E81D, K90R
# notes: hybridoma mAb
# B10: 74G6 (antibody, V domains shown)
# VH: B6 VH with E58K, H59N, R100G, G101S, V102Y, Y105D, V109Y, T115L
# VL: DIQMTQSPSSLSASVGDRVTITCRASQGIGKYLAWFQQKPGKAPKSLIYTTSSLQSGAPSKFSGSGSGTDFTLTISSLQYEDFATYYCQQYSNYPLTFGGGTKVEIN
# notes: hybridoma mAb
# B11: 74C8 (antibody, V domains shown)
# VH: B6 VH with E58K, H59N, R100G, G101S, V102Y, Y105D, V109Y, T115L
# VL: B10 VL with S53N
# notes: hybridoma mAb
# B12: 197G3 (antibody, V domains shown)
# VH: B6 VH with A23V, Y32H, E58K, H59N, R100P, G101S, Y105D, L107M
# VL: DIQMTQSPSSLSASVGDRVTITCRASQGIGNHLAWFQQKPGKAPKSLIYAASSLQSGVPSKFSGSRSGTDFSLTISSLQPEDFATYYCQQYSNYPVTFGPGTKVDIK
# notes: hybridoma mAb
# B13: 219H1 (antibody, V domains shown)
# VH: B6 VH with S31R, E58K, A88G, Y105N, L107M
# VL: B6 VL with L11Q, N26S, A28G, A34D, A50S, S53N, G66R, L92S, T93N
# notes: hybridoma mAb
# B14: 194B7 (antibody, V domains shown)
# VH: B6 VH with E58K, H59N, G101S, V102K, Y105D, L107M
# VL: B6 VL with N26S, A28G, N31K, A50G, S53R, T93N, G100Q, K103R, V104L
# notes: hybridoma mAb
# B15: 197F2 (antibody, V domains shown)
# VH: B6 VH with E58K, H59N, R100Q, Y105D
# VL: DIQMIQSPSSLSASVGDRVTITCRTSQGIGNYLAWFQQKPGKAPKSLLYKTSSLQSGVPSKFSGSGSGTDFTLTISSLQPEDFATYYFQQYITYPLTFGGGTKVEIK
# notes: hybridoma mAb
# B16: 197E11 (antibody, V domains shown)
# VH: B6 VH with S30R, S31N, Y53F, E58D, H59Y, Y80S, G101S, Y105D
# VL: B7 VL with G30N, A34S, S49Y, L55Q, S77R, E81D, C88G, K90R
# notes: hybridoma mAb
# B17: 190H9 (antibody, V domains shown)
# VH: B6 VH with S30R, S31N, Y53F, E58D, H59Y, Y80S, G101S, Y105D
# VL: B7 VL with P44L, S49Y, V54L, L55Q, E81D, K90R
# notes: hybridoma mAb
# B18: 192C10 (antibody, V domains shown)
# VH: B6 VH with A24S, S30R, S31N, E46K, Y53F, E58D, H59Y, Y80S, G101S, Y105D
# VL: B7 VL with S49Y, V54L, L55Q, E81D, K90R, I106F
# notes: hybridoma mAb
# B19: 204G6 (antibody, V domains shown)
# VH: B6 VH with A23T, E58K, H59N, Y105D, L107M
# VL: B6 VL with Q3R, V19I, A25T, N26S, A28G, S30G, K61R, T93S
# notes: hybridoma mAb
# B20: 198G3 (antibody, V domains shown)
# VH: B6 VH with R19K, S31T, S56T, E58K, H59N, Y80C, R100Q, Y105D
# VL: B15 VL with I5A, N31K, T51A, S56G, F88C, I92M
# notes: hybridoma mAb
# B21: 197B6 (antibody, V domains shown)
# VH: B6 VH with E58K, H59N, T78M, V93M, R100Q, Y105D, T115S
# VL: B10 VL with T50G, T51A, A58V, Y80P, D82N, N93T, N107K
# notes: hybridoma mAb
# B22: 198B9 (antibody, V domains shown)
# VH: QVQLVESGGGVVQPGRSLRLSCAASGFTFSNYGMHWVRQAPGKGLEWVAIIWFDGSNKYYVDSVKGRFTISRDNSKNTLFLQMSSLRAEDTAVYYCAREWLQFRYYYGMDVWGQGTTVTVSS
# VL: DIQMTQSPSSLSASVGDRVTITCRASQGIRKDLGWYQQKPGKAPKRLIYAASSLQSGVPSRFSGSGSGTEFTLTISSLQPEDFATYVCLQHYRYPFTFGPGTKVDFK
# notes: hybridoma mAb
# B23: 199A7 (antibody, V domains shown)
# VH: B22 VH with V61A
# VL: B22 VL
# notes: hybridoma mAb
# B24: 149A1 (antibody, V domains shown)
# VH: EVQLVESGGGLVQPGGSLRLSCAASGFTFSSYNMNWVRQAPGKGLEWVSYISRSSNTKHYADSVKGRFTISRDNAKNSLYLQMNSLRDEDTAVYYCARDRSGSYGYFYYYGLDVWGQGTTVTVSS
# VL: not shown
# notes: hybridoma mAb
# B25: 146A8 (antibody, V domains shown)
# VH: B24 VH with Q3K, G16E, A23V, S31N, H59Y, K65R
# VL: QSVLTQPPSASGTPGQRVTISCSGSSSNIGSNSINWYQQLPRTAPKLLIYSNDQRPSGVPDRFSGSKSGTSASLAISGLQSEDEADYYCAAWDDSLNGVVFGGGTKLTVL
# notes: hybridoma mAb
# Target: T1, recombinant, soluble human ASGR-1
# Assay: Octet BLI dissociation, pH 5.6 plus calcium
# In short: (§1)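 Antibodies were captured on anti-human Fc biosensors, and soluble ASGR-1 (6 ug/ml) was associated for 2 min in Tris buffer containing 1 mM CaCl2 at pH 7.4, followed by 10 min dissociation under each test condition. The signal at the end of association was set as 100%. Percent ASGR-1 still bound after 1 min of dissociation was compared with the pH 7.4 plus calcium control, and >10% extra dissociation was scored as sensitive.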
row,% Change Compared to pH 7.4 + Calcium [%],Binder
1,-4,B1
2,-1,B2
3,-2,B3
4,-9,B4
5,-2,B5
6,-12,B6
7,-7,B7
8,-9,B8
9,-6,B9
10,-9,B10
11,-7,B11
12,-3,B12
13,-3,B13
14,-4,B14
15,-6,B15
16,-5,B16
17,-6,B17
18,-6,B18
19,-11,B19
20,-4,B20
21,-8,B21
22,2,B22
23,1,B23
24,-7,B24
25,-9,B25

# Target: T1, recombinant, soluble human ASGR-1
# Assay: Octet BLI dissociation, pH 5.6 minus calcium
# In short: as §1
row,% Change Compared to pH 7.4 + Calcium [%],Binder
1,0,B1
2,2,B2
3,1,B3
4,-5,B4
5,2,B5
6,-12,B6
7,-3,B7
8,-8,B8
9,-6,B9
10,-4,B10
11,-3,B11
12,-3,B12
13,1,B13
14,-4,B14
15,-6,B15
16,-4,B16
17,-7,B17
18,-6,B18
19,-10,B19
20,-4,B20
21,-7,B21
22,11,B22
23,10,B23
24,9,B24
25,25,B25

# Target: T1, recombinant, soluble human ASGR-1
# Assay: Octet BLI dissociation, pH 7.4 minus calcium
# In short: as §1
row,% Change Compared to pH 7.4 + Calcium [%],Binder
1,1,B1
2,-1,B2
3,1,B3
4,8,B4
5,2,B5
6,-8,B6
7,-1,B7
8,-2,B8
9,-1,B9
10,1,B10
11,1,B11
12,2,B12
13,2,B13
14,1,B14
15,0,B15
16,-1,B16
17,-1,B17
18,-1,B18
19,-5,B19
20,-1,B20
21,-1,B21
22,3,B22
23,1,B23
24,2,B24
25,2,B25
